Where a chain is given by its changes, count along the chain named.
B1: BD56-104 (antibody, V domains shown)
VH: QVQLVQSGAEVKTPGSSVKVSCKASGGTFGSHSITWVRQAPGQGLEWMGRVIPILGIPDFAESFQGRVAITADRSTSTAHMELSRLRSEDTAVYYCARDVGYSGSGSSNYFDSWGQGTLVTVSS
VL: QSVLTQPPSVSGAPGQRVTISCTGSNSNIGAGYDVHWYRQLPGTAPKLLIYVNNNRPSGVPDRFSGSRSGASASLAITGLQAEDEAEYYCQSYDSSLSGSIFGGGTKLTVL
B2: BD56-104+D59NH+E62QH (antibody, V domains shown)
VH: B1 VH with D59N, E62Q
VL: B1 VL
B3: ZL525 (antibody, V domains shown)
V domain 1: QVQLVQSGAEVKKPGSSMKVSCQASGGTFSSHPISWIRQAPGQGLEWMGRIIPIAGMTDYGQKFQGRITITADTSTSTSYVELRGLRSQDTAFYYCAKDVGYSDYGSAYYFHTWGQGTLITVSS
V domain 2: QSVLTQPPSVSGAPGQRVTISCTGSNSNIGAGYDVHWYQQLPGTAPKLLIYRNNKRPSGVPDRFSGSKSDTSASLAITGLQAEDEAHYYCQSFDSSLGGSLFGGGTKLAVL
B4: R1-32-AAM (R1-32-artificial-affinity-matured) (antibody, V domains shown)
VH: EVQLVESGAEVKKPGSSVKVSCKASGGTFSSYFISWVRQAPGQGLEWMGGIIPILGIADYAEKFQGRVTITADKSTSTAYMELSSLRSEDTAVYYCARENGYSGYGAAYNFDLWGRGTLVTVSS
VL: B3 V domain 2 with N26D, R52G, N54S, K55N, H87D, F93Y, G98S, G99D, L101V, A109T
B5: R1-32 (antibody, V domains shown)
VH: B4 VH with F33A, D59N, E62Q, Y109A
VL: B1 VL with N26S, R39Q, V52G, N54S, R68K, A71T, E87D, I101V
B6: C807 (antibody, V domains shown)
VH: QVQLVQSGAEAKKPGSSVKVSCKASGGTFKSYIINWVRQAPGQGLEWMGEIIPIFGTANYAQKFQGRVTSTADESTSTAYMELSSLKSEDTAVYYCARGRGYSGYGASYYFDYWGQGTLVTVSS
VL: B1 VL with R39Q, V52A, N54S, R68K, A71T, E87D, S96G, I101V
B7: C092 (antibody, V domains shown)
VH: QVQLVQSGAEVKKPGSSVKVSCKASGGSFTNHFISWVRQAPGQGLEWMGRIIPILGTANYAQNFQGRVMMTADKSTSTAYMELSSLRSEDTAVYYCARDSGYSGYGSTYYMDVWGKGTTVTVSS
VL: QSVLTQPPSVSGAPGQRVTISCTGSNSNIGAGYDVHWYQQLPGAAPKLLIYGNNNRPSGVPDRFSGSKSDTSASLAITGLQVEDEADYYCQSYDSSLSDSVFGSGTKVTVL
B8: C092-germline HCDR1 (antibody, V domains shown)
VH: B7 VH with S28T, T30S, N31S, H32Y, F33A
VL: B7 VL
B9: BD56-597 (antibody, V domains shown)
VH: QVQLVQSGAEVKKPGSSVKVSCKASGGTFSTYPISWVRQAPGQGVEWMGAIIPILGTTDYAQIFQGRVTITADKSTSTAYMELSSLRPEDTAVYYCARERGYSGYGAAYYFDSWGQGTLVTVSS
VL: B1 VL with N26D, R39Q, N54I, R68K, G70A, A71T, E87D, S100V, I101V

Tests used:
[1] = target: SARS-CoV-2 Omicron XBB.1.5 RBD (SARS-CoV-2 Omicron XBB.1.5, F490S); experiment: BLI
[2] = target: SARS-CoV-2 Omicron BA.1.1 RBD (SARS-CoV-2 Omicron BA.1.1, strain); experiment: BLI
[3] = target: SARS-CoV-2 Omicron BF.7 RBD (SARS-CoV-2 Omicron BF.7, L452R); experiment: BLI
[4] = target: SARS-CoV-2 Omicron BA.2.75 RBD (SARS-CoV-2 Omicron BA.2.75, strain); experiment: BLI
[5] = target: SARS-CoV-2 Beta (B.1.351) RBD (SARS-CoV-2 Beta (B.1.351), strain); experiment: BLI
[6] = target: SARS-CoV-2 Omicron BA.2.12.1 RBD (SARS-CoV-2 Omicron BA.2.12.1, L452Q); experiment: BLI
[7] = target: SARS-CoV-2 WT S-trimer (SARS-CoV-2 ancestral (WT), UniProt P0DTC2, deletion of amino acids PRRA (681-684)); experiment: BLI
[8] = target: SARS-CoV-2 Kappa (B.1.617.1) RBD (SARS-CoV-2 Kappa (B.1.617.1), L452R); experiment: BLI
[9] = target: SARS-CoV-2 Alpha (B.1.1.7) RBD (SARS-CoV-2 Alpha (B.1.1.7), strain); experiment: BLI
[10] = target: SARS-CoV-2 Omicron BQ.1.1 RBD (SARS-CoV-2 Omicron BQ.1.1, R346T | L452R); experiment: BLI
[11] = target: SARS-CoV-2 Omicron EG.5.1 RBD (SARS-CoV-2 Omicron EG.5.1, F490S); experiment: BLI
[12] = target: SARS-CoV-2 Omicron BA.2.13 RBD (SARS-CoV-2 Omicron BA.2.13, L452M); experiment: BLI
[13] = target: SARS-CoV-2 Omicron XBB RBD (SARS-CoV-2 Omicron XBB, F490S); experiment: BLI
[14] = target: SARS-CoV-2 Omicron BA.1 RBD (SARS-CoV-2 Omicron BA.1, strain); experiment: BLI
[15] = target: SARS-CoV-2 Omicron BA.2 RBD (SARS-CoV-2 Omicron BA.2, strain); experiment: BLI
[16] = target: SARS-CoV-2 Omicron BA.3 RBD (SARS-CoV-2 Omicron BA.3, strain); experiment: BLI
[17] = target: SARS-CoV-2 Omicron BA.4/5 RBD (SARS-CoV-2 Omicron BA.4/5, L452R); experiment: BLI
[18] = target: SARS-CoV-2 Omicron EG.5 RBD (SARS-CoV-2 Omicron EG.5, R346T | F490S); experiment: BLI
[19] = target: SARS-CoV-2 Gamma (P.1) RBD (SARS-CoV-2 Gamma (P.1), strain); experiment: BLI
[20] = target: SARS-CoV-2 Delta (B.1.617.2) RBD (SARS-CoV-2 Delta (B.1.617.2), L452R); experiment: BLI
[21] = target: T1, SARS-CoV-2 KP.3 RBD (SARS-CoV-2 Omicron KP.3, strain, N354 glycosylation); experiment: cell-based or functional assay
[22] = target: SARS-CoV-2 JN.1 RBD (SARS-CoV-2 Omicron JN.1, strain, N354 glycosylation); experiment: BLI
[23] = target: SARS-CoV-2 JD.1.1 RBD (SARS-CoV-2 Omicron JD.1.1, strain); experiment: BLI
[24] = target: SARS-CoV-2 HK.3 RBD (SARS-CoV-2 Omicron HK.3, strain); experiment: BLI
[25] = target: T1, SARS-CoV-2 KP.3 RBD; experiment: BLI
[26] = target: SARS-CoV-2 BA.2.86 RBD (SARS-CoV-2 Omicron BA.2.86, strain, N354 glycosylation); experiment: BLI

Binder | Kd [1] | Kd [2] | Kd [3] | Kd [4] | Kd [5] | Kd [6] | binding result [7] | Kd [8] | Kd [9] | Kd [10] | Kd [11] | Kd [12] | Kd [13] | Kd [14] | Kd [15] | Kd [16] | Kd [17] | Kd [18] | Kd [19] | Kd [20] | further results
B1 | < 4.5 nM | < 0.3 nM | < 2.1 nM | < 0.3 nM | < 0.3 nM | < 2.1 nM | binds | < 2.1 nM | < 0.3 nM | < 2.1 nM | < 4.5 nM | < 2.1 nM | < 4.5 nM | < 0.3 nM | < 0.3 nM | < 0.3 nM | < 2.1 nM | < 4.5 nM | < 0.3 nM | < 2.1 nM | –
B2 | – | – | – | – | – | – | – | – | – | – | – | – | – | – | – | – | – | – | – | – | fold reduction in binding relative to BD56-104 [17]: ~100 fold
B3 | < 0.71 nM | – | – | – | – | – | – | < 0.71 nM | – | < 0.71 nM | < 0.71 nM | – | – | – | – | – | < 0.71 nM | – | – | < 0.71 nM | IC50 of neutralisation of authentic KP.3 virus (focus reduction, Vero E6) [21]: 0.107 µg/mL; Kd [22]: < 1.11 nM; Kd [23]: < 1.11 nM; Kd [24]: < 1.11 nM; Kd [25]: < 1.11 nM; Kd [26]: < 1.11 nM
B4 | – | – | – | – | – | – | – | – | – | – | – | – | – | – | – | – | – | – | – | – | fold enhancement of affinity relative to R1-32 [3]: ~100 fold; fold enhancement of affinity relative to R1-32 [8]: ~100 fold; fold enhancement of affinity relative to R1-32 [10]: ~100 fold; fold enhancement of affinity relative to R1-32 [17]: ~100 fold; fold enhancement of affinity relative to R1-32 [20]: ~100 fold
B5 | – | – | > 55 nM | – | – | > 55 nM | – | > 55 nM | – | > 55 nM | – | > 55 nM | – | – | – | – | > 55 nM | – | – | > 55 nM | –
B6 | < 4.5 nM | < 0.3 nM | < 2.1 nM | < 0.3 nM | < 0.3 nM | < 2.1 nM | binds | < 2.1 nM | < 0.3 nM | < 2.1 nM | < 4.5 nM | < 2.1 nM | < 4.5 nM | < 0.3 nM | < 0.3 nM | < 0.3 nM | < 2.1 nM | < 4.5 nM | < 0.3 nM | < 2.1 nM | –
B7 | < 4.5 nM | < 0.3 nM | < 2.1 nM | < 0.3 nM | < 0.3 nM | < 2.1 nM | binds | < 2.1 nM | < 0.3 nM | < 2.1 nM | < 4.5 nM | < 2.1 nM | < 4.5 nM | < 0.3 nM | < 0.3 nM | < 0.3 nM | < 2.1 nM | < 4.5 nM | < 0.3 nM | < 2.1 nM | –
B8 | – | – | – | – | – | – | – | – | – | – | – | – | – | – | – | – | – | – | – | – | fold reduction in binding relative to C092 [8]: ~10 fold; fold reduction in binding relative to C092 [17]: ~10 fold; fold reduction in binding relative to C092 [20]: ~10 fold
B9 | < 4.5 nM | < 0.3 nM | < 2.1 nM | < 0.3 nM | < 0.3 nM | < 2.1 nM | binds | < 2.1 nM | < 0.3 nM | < 2.1 nM | < 4.5 nM | < 2.1 nM | < 4.5 nM | < 0.3 nM | < 0.3 nM | < 0.3 nM | < 2.1 nM | < 4.5 nM | < 0.3 nM | < 2.1 nM | –
